Patent US20110021367A1 (INDIAN INSTITUTE OF SCIENCE, published 2011)

B1: apo-RslA 1-108 (Zn2+ free, oxidized N-terminal domain of M. tuberculosis RslA), N-term His-tag (other)
chain: MTMPLRGLGPPDDTGVREVSTGDDHHYAMWDAAYVLGALSAADRREFEAHLAGCPECRGAVTELCGVPALLSQLDRDEVAAISESAPTVVASGLSPELLPSLLAAVHR
modifications: Zn2+ removed with H2O2 and TPEN; oxidized, one disulfide bond
notes: range 1-108; Same polypeptide as holo-RslA; for SPR made on the chip by passing 10 mM H2O2 and 2 mM TPEN over immobilized RslA; also called Zn^2+ free RslA; oxidized RslA; not shown: N-terminal His-tag from pET-Duet1 MCS1
B2: σ^L 1-177 (Mycobacterium tuberculosis sigma factor L, Rv0735), N-term His-tag (other)
chain: MARVSGAAAAEAALMRALYDEHAAVLWRYALRLTGDAAQAEDVVQETLLRAWQHPEVIGDTARPARAWLFTVARNMIIDERRSARFRNVVGSTDQSGTPEQSTPDEVNAALDRLLIADALAQLSAEHRAVIQRSYYRGWSTAQIATDLGIAEGTVKSRLHYAVRALRLTLQELGVTR
notes: range 1-177; also called SigL; Mtb σ^L; not shown: N-terminal His-tag from pET-Duet1 MCS1

Columns and labels:
[1] = molecular target: B2; experiment: SPR (BIACORE 2000), immobilized RslA freed of Zn2+ with H2O2/TPEN, σ^L as analyte
[2] = molecular target: the molecule itself; experiment: analytical gel filtration; dynamic light scattering
[3] = molecular target: B1; experiment: SPR (BIACORE 2000), immobilized RslA freed of Zn2+ with H2O2/TPEN, σ^L as analyte

Row | Binder | Kd [1] | binding result [2] | fold reduction in affinity against Zn2+ bound RslA [3]
1 | B1 | ~150 nM | binds | 
2 | B2 |  |  | 7 fold
